Test results as given in the DeepSol protein solubility set.

Assay: soluble on expression in E. coli; label from the status in PepcDB or PDB records

Row | Sequence | soluble on expression in E. coli
1 | MIATGDALNLLSKMTFKRLITLLKVFVSYQYSKITGNVVHPSVPYSIAIEPTTSCNLRCPECPSGLRSFTRPTGMLNIAMFSKIIDELYQQISYLIFYFQGEPYLNTSFLEMVKYASSKGIYTATSTNAHYLTDENARKTVESGLDRLIISIDGTTQEVYEQYRIGGSLEKVLEGTKNILAWKKKLHASTPHVIFQFLVVKPNQHQLKEVKKMAKELGVGEVRFKTAQIHDYENGSPLIPDIDKYARYRKNADNTYSIKNSLLNHCWKMWHSCVITWDGKIVPCCFDKDAHLVMGELKTNTFKEIWNSAPYIQFRKSLLKSRSEIDMCKNCTEGTTVWA | not soluble
2 | MGSDKIHHHHHHMSKPAYLVEADGVNITKQIADRLLSLTVVDEAEQLSDRVEIVLDDRDKLLEIPKSGTWLKVYLGYAEGGKLPVYMGTYAVDDLTLSNGPRSMVVRATALETAPAMKDSRTQSWHDTTLGEIARTIASRSGLELRIVGDVGSIPIKHEDQTAESDIAFLTRLARRLKITAKPIDKALWITRRASDIPATPGVELAQRIVKGDEVSDWRATIKNRGAYSRVKARYFDQDEKKEKLLTVGPEDGNLQTFEEKQLYKTRDEAQRAADSRLQSLQSGEVTIDFSMEGDPEFTAEGQVTLQDFRALVDGTWYIRNVTHKFDGNGYRTTVTCGTKGEANNDWSAGRGENDKRSASEKGSLLCKTAQQLRGFSTQGGPDGGRNACVWAVNRVFQKAGLTTPWGGSNYVPDAEAALRRSGAQQVSGPEPGAIAIFTDGGNPPQAHIGIVTCDGGRVISNSSSRPTRTRLASPSEYQGFYSGPIRYYRLK | not soluble
3 | MGSDKIHHHHHHGCDREEDERFPSGHHDPIEGDGEMVPINVKVDGVDEFPGGAVTRSGEILTKIVQPLDSTYDSGYDVETTIESLLPVNPVQTRGNMANMQFRVVAYKNNSITAANYAGTAVYSTNASGIASIVANTATPAAVSGQWVLRPGTYAFVFYSYGTNSAPAALSGNWSTTVTHNQDFMLCQKTGVDVKADASGQCLLSGISFSRQCAQLQLCVVAKEFNNNTVQQCAATISGLSNSPVTWNASQTTLPVTGTSGTLNVAWTNPNATTVNSNVYKVLPQTNRTLTIKFTTLKIGNGQMNNAITVSATSRIFSAAGNYKITVSIVPNYISVRSYKWARGNLYKSGSNFYFEASQSNYHGGATEGGFIGWNTLDIGVGKYNSGNYSTANDPCYQVVPPGTWETPSDGQLQDLINAGVTYSGSPKGFWFGGNNGVFLLALGSRDQSSTTINNTISKNGAWAFYWSRTPSGKTAKGLNAMQGNNSAGIDNSWARPDGRTIRCVKR | not soluble
4 | MMNDSFCRIIAGEIQARPEQVDAAVRLLDEGNTVPFIARYRKEITGGLDDTQLRNLETRLSYLRELEERRQAILKSISEQGKLTDDLAKAINATLSKTELEDLYLPYKPKRRTRGQIAIEAGLEPLADLLWSDPSHTPEVAAAQYVYADKGVADTKAALDGARYILMERFAEDAALLAKVRDYLWKNAHLVSTVVSGKEEEGAKFRDYFDHHEPLSTVPSHRALAMFRGRNEGVLQLSLNADPQFDEPPKESYCEQIIMDHLGLRLNNAPADSWRKGVVSWTWRIKVLMHLETELMGTVRERAEDEAINVFARNLHDLLMAAPAGLRATMGLDPGLRTGVKVAVVDATGKLVATDTIYPHTGQAAKAAMTVAALCEKHNVELVAIGNGTASRETERFYLDVQKQFPKVTAQKVIVSEAGASVYSASELAAQEFPDLDVSLRGAVSIARRLQDPLAELVKIDPKSIGVGQYQHDVSQTQLARKLDAVVEDCVNAVGVDLNTASVPLLTRVAGLTRMMAQNIVAWRDENGQFQNRQQLLKVSRLGPKAFEQCAGFLRINHGDNPLDASTVHPEAYPVVERILAATQQALKDLMGNSSELRNLKASDFTDEKFGVPTVTDIIKELEKPGRDPRPEFKTAQFADGVETMNDLQPGMILEGAVTNVTNFGAFVDIGVHQDGLVHISSLSNKFVEDPHTVVKAGDIVKVKVLEVDLQRKRIALTMRLDEQPGETNARRGGGNERPQNNRPAAKPRGREAQPAGNSAMMDALAAAMGKKR | soluble
5 | MGSDKIHHHHHHMNVVVCIKQVPDTTNVRIDRKTNNLVREGVPSIINPDDERALELASQLKEKFGATVYVITMGPPQAKEALKDAIAFGLDEAVHLSDRTFAGADTLATTYTLYWGIKKIEERIGKIDLILTGKQAVDGDTGQVGPGLATRFGYALGAYVVRIEEIDPEKKEMVIVRRLDQGFEKIRLKLPAVLTITDELNKPRYADLPNLIRAIRYEPIVWTHKDLGLDPKKCGFFGSPTRVVSTNIPPARKGGDIISKNEDPEVAAEKLIEALKKFEAVRLVEALKPVLEGEKDE | not soluble
6 | MGHHHHHHSHMVCSPVTVRIAPPDRRFSRSAIPEQIISSTLSSPSSNAPDPCAKETVLSALKEKKKKRTVEEEDQIFLDGQENKRSCLVDGLTDASSAFKVPRPGPDTLQFTVDVFHFANDSRNMIYITCHLKVTLAEQDPDELNKACSFSKPSNSWFPVEGPADICQCCNKGDCGTPSHSRRQPRVVSQWSTSASRNRRHVTEEADVTVGATDLPGQEW | not soluble
7 | MSEKIRVLLYYKYVSIENAQEYAAKHLEFCKSIGLKGRILIADEGINGTVSGDYETTQKYMDWVHSDERFADLWFKIDEENQQAFRKMFVRYKKEIVHLGLEDNNFDSDINPLETTGEYLNPKQFKEALLDEDTVVLDTRNDYEYDLGHFRGAIRPDIRNFRELPQWVRDNKDKFMEKRVVVYCTGGVRCEKFSGWMVREGFKDVGQLHGGIATYGKDPEVQGELWDGAMYVFDDRISVPINHVNPTVISKDYFDGTPCERYVNCANPFCNKQIFASEENETKYVRGCSPECRAHERNRYVQENGLSRQEWAERLEAIGESLPEFVGALEHHHHHH | soluble
8 | MGSDKIHHHHHHMVDIHSHIIPGIDDGSNSLETTLNMMSIAKEAGVTKMVATSHYYRGKFENSISVIEKKANELNYTLKEKGVDIDVIPGQEVFIDNYTLKDYKEGIIGTINNTDYMLVEFDMMSLGENAIDTLYELQIKGIKPIIAHPERYTYIQKDIYKINELMDENIYFQVNAGSIEGLFGKTVQKTALKLVEEGVISFIASDAHSAGKRCPGYEKALHDLTKIDKTLAEKFIKNSNLLLENEKIENKVRKLKKKKTFFSFLK | not soluble
9 | MSRGPSSAVLPSALGSRKLGPRSLSCLSDLDGGVALEPRACRPPGSPGRAPPPTPAPSGCDPRLRPIILRRARSLPSSPERRQKAAGAPGAACRPGCSQKLRVRFADALGLELAQVKVFNAGDDPSVPLHVLSRLAINSDLCCSSQDLEFTLHCLVPDFPPPVEAADFGERLQRQLVCLERVTCSDLGISGTVRVCNVAFEKQVAVRYTFSGWRSTHEAVARWRGPAGPEGTEDVFTFGFPVPPFLLELGSRVHFAVRYQVAGAEYWDNNDHRDYSITCRNHALHMPRGECEESWIHFI | soluble
10 | MLSTSASLYLNELINEMRQLSETPIDCKNARMLLSKEISKVFDELYRHGQGFIDNGYGSDYNKNDFYSPHSANSGYSASPFPSRPSLPNHALSTSFYHNSFMTPIRNGRMRSPDQDLGDWSREKINDTQHVLQTKVYIPEPPVSIDGKKVKCNYIGRILGPSGMSARMIENQYDVTLLIRGAGSVRNKAMDERVRKRNEHLEEPLHVLLIARHNDKTKCEEILNKAAEKIESLLTPIHDEYKMDQLVSYAKMNGTYQERPKRKSQLDEQSHSNYWAPH | not soluble
11 | MAMGRTTQFTLDEVAKHADKDSCWLVIDGKVYAVEKFLNEHPGGEDVLLETAGRDATREFEDVGHSKSAREQLKEFYIGDVREPTAEELAAKRAVQASAAAERRDGDGVRANGLGKERLFAGGAFGAEPLSGGSSTWTLLKRLFVPVCIAVLVYLVREYSKQVQTGG | not soluble
12 | SAEGEDVGWWRSWLQQSYQAVKERSTEALEFMKRDLTEFTQVVQHDTACTIAATASVVKEKLATEGSSGATEKVKKGLSDFLGVISDTFAPSPDKTIDCDVITLMGTPSGTAEPYDGTKARLYSLQSDPATYCNEPDGPPELFDAWLSEFCLEEKKGEISELLVGSPSIRALYTKMVPAAVSHSEFWHRYFYKVHQLEQEQARRDALKQRADQSISEEPGWEEEEEELEGIVPSPKEAKIPKETKTTTSPEDEPAPQSPCEETPVEPPAEATPSESSESISLVTQVANPAAAPEAPELPKDLSQKLFEASLEEQSLAEDEGETGPPPPPPSKPLTPAGRASGPEPRPPARVETLREEVPTDLRVFELNSDSGKSTPSNNGKKGSSTDISEDWEKDFDLDMTEEEVQMALSKVDASGELEDVEWEDWE | not soluble
